Reference: the supplement of paper PMC10065799, “High-throughput profiling of sequence recognition by tyrosine kinases and SH2 domains using bacterial peptide display” (eLife, 2023)

Assays:
[1] = tested on: AncSZ; assay: phosphorylation enrichment, bacterial display (enrichment ratio); higher = better substrate or ligand; peptides without Tyr show the background
[2] = molecular target: EPHB1 (UniProt P54762); assay: as above
[3] = molecular target: EPHB2 (UniProt P29323); assay: as above
[4] = molecular target: FGFR1 (UniProt P11362); assay: as above
[5] = molecular target: FGFR3 (UniProt P22607); assay: as above
[6] = tested on: Fer (mouse); assay: as above
[7] = molecular target: Fes (UniProt P07332); assay: as above
Sequence of Fes (P07332 whole entry, looked up): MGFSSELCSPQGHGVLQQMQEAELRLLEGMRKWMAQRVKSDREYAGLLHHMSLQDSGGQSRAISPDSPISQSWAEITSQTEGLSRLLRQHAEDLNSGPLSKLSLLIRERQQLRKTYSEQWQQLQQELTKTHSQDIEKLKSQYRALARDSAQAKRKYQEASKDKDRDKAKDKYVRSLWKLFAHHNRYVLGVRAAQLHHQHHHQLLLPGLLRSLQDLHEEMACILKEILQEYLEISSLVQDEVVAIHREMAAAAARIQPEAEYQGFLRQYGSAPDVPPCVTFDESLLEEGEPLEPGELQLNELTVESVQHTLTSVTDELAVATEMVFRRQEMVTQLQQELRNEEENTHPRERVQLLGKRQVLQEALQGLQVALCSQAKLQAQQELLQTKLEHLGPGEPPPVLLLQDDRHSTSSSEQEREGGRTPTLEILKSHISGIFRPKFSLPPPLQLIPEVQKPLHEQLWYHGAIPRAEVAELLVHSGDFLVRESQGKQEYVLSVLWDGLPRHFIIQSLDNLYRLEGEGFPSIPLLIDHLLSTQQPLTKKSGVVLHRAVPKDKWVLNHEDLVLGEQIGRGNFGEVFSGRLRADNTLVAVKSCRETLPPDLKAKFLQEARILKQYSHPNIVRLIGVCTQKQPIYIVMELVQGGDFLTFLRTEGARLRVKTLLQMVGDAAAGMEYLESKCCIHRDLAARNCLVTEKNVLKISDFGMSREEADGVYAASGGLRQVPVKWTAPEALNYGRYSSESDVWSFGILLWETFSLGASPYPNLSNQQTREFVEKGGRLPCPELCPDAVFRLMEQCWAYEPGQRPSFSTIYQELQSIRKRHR

[8] = molecular target: Fyn (UniProt P06241); assay: as above
Sequence of Fyn (P06241 whole entry, looked up): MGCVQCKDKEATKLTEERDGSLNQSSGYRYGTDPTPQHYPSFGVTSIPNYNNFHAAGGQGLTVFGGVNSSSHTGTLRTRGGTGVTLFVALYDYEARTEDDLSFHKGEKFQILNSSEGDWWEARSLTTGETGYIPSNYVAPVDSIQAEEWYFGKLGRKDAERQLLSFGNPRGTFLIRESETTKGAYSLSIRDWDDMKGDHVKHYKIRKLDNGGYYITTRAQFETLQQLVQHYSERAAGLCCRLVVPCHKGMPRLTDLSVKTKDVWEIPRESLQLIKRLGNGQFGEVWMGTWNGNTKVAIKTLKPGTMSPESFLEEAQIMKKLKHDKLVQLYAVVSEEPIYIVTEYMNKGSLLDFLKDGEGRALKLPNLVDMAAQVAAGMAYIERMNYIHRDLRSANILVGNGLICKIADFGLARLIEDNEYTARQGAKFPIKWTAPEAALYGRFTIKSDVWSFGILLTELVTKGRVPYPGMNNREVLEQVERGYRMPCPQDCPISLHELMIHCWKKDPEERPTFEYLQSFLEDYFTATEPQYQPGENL

[9] = molecular target: Hck (UniProt P08631); assay: as above
[10] = molecular target: Jak2 (UniProt O60674); assay: as above
Sequence of Jak2 (O60674 whole entry, looked up): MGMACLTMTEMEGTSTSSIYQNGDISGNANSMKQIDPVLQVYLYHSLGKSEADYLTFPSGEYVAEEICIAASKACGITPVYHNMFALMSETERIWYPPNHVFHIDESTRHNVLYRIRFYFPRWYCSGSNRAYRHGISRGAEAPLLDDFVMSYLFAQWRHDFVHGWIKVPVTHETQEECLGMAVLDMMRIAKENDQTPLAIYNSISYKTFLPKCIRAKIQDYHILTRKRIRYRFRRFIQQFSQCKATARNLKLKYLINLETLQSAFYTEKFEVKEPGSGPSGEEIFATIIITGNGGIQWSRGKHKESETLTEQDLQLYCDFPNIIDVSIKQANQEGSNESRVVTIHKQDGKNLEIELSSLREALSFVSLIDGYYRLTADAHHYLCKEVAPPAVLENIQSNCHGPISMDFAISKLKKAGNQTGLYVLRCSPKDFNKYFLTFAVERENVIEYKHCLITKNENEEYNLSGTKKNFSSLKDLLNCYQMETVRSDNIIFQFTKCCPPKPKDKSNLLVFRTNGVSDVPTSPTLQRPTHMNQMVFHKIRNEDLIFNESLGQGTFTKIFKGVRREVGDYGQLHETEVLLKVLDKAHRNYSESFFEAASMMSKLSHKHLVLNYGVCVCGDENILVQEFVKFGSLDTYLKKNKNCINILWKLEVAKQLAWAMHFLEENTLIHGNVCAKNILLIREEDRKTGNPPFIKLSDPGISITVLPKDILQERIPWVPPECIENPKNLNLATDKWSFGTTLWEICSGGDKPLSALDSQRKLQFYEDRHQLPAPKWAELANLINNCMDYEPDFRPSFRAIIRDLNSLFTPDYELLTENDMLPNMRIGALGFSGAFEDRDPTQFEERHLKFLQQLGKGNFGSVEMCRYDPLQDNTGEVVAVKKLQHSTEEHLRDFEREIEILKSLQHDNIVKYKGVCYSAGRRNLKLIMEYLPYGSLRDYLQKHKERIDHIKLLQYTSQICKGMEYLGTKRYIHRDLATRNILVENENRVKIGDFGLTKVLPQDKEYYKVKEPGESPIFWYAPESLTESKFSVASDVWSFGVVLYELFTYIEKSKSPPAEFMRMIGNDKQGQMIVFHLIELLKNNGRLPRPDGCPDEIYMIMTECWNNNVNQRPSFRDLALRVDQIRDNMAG

[11] = molecular target: MERTK (UniProt Q12866); assay: as above
Sequence of MERTK (Q12866 whole entry, looked up): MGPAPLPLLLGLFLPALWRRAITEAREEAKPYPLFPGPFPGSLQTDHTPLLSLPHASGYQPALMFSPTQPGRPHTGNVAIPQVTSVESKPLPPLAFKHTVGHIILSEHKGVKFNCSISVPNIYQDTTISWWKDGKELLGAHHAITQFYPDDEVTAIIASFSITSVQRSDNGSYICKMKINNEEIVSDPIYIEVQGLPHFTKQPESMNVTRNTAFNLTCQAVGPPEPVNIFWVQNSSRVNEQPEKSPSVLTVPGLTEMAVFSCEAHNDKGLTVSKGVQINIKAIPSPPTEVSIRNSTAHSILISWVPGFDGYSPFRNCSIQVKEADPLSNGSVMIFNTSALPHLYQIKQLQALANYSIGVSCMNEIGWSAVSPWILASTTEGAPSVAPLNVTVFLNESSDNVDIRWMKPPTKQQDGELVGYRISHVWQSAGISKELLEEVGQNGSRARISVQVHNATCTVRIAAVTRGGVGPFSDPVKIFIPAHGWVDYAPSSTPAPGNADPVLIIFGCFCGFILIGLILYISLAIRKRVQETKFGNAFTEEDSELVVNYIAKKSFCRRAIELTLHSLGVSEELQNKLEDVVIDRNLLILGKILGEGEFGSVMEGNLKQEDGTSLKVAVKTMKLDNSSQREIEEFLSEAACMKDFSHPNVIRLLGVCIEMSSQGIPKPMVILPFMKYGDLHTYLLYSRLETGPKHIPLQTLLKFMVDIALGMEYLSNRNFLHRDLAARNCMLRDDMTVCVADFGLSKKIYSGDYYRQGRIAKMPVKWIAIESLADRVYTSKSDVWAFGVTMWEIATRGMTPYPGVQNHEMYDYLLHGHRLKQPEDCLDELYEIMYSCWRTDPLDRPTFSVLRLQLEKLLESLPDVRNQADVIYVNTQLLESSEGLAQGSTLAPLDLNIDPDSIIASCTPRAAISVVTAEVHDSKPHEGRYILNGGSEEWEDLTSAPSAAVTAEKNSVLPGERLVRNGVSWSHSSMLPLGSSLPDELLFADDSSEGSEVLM

[12] = tested on: c-Abl (mouse); assay: as above
[13] = tested on: c-Src; assay: as above
[14] = molecular target: Grb2 SH2 (UniProt P62993); assay: SH2 binding enrichment of the phosphorylated peptide, bacterial display (enrichment ratio); higher = better substrate or ligand; peptides without Tyr show the background
Sequence of Grb2 SH2 (P62993 whole entry, looked up): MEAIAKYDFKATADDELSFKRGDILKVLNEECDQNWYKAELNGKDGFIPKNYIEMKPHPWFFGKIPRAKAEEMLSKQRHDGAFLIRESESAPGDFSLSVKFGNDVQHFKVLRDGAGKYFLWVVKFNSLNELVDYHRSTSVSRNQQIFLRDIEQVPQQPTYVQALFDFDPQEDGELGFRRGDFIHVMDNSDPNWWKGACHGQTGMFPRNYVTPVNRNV

[15] = molecular target: SHP2-C SH2; assay: as above
[16] = molecular target: c-Src SH2; assay: as above
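Throughout, for SH2 binding enrichment of the phosphorylated peptide, bacterial display: peptide library displayed on the E. coli surface as eCPX fusions, selected cells deep-sequenced, score is each peptide's frequency after selection divided by its frequency in the input.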
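Throughout, for phosphorylation enrichment, bacterial display: 11-residue human phosphosite peptides and single-mutation variants displayed on the E. coli surface, counted by deep sequencing, each peptide's frequency after selection divided by its frequency in the unselected input library; frequency after pTyr selection over input frequency; kinase dosed for 20-30% of maximal phosphorylation in three min.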

Sequence of EPHB2 (P29323 whole entry, looked up): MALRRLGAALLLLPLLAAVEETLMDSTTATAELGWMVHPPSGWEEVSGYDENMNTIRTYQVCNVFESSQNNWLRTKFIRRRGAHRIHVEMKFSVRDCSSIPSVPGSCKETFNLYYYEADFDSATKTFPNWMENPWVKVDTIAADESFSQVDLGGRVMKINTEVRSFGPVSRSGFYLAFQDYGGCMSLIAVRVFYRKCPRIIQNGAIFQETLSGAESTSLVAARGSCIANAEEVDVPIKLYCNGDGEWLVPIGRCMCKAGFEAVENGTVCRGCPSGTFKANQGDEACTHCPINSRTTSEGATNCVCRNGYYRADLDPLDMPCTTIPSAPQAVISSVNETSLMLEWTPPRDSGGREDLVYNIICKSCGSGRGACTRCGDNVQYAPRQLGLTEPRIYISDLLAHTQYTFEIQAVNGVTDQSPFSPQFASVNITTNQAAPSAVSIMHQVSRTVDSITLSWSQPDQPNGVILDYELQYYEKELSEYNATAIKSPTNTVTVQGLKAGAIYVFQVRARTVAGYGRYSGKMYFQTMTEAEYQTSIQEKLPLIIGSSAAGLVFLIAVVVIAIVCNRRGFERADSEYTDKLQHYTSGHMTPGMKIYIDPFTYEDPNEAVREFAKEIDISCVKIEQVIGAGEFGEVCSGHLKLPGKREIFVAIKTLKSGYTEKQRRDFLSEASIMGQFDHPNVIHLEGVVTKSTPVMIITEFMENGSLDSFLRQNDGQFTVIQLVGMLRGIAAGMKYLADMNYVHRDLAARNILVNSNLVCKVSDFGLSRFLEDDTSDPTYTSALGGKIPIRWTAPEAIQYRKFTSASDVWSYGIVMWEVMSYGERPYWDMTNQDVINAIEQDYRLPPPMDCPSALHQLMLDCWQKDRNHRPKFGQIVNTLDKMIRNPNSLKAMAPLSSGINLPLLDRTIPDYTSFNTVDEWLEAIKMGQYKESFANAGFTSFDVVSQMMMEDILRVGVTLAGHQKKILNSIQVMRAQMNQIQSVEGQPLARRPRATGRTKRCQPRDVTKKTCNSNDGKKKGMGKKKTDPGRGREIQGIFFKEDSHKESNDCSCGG

Sequence | phosphorylation enrichment [1] | phosphorylation enrichment [2] | phosphorylation enrichment [3] | phosphorylation enrichment [4] | phosphorylation enrichment [5] | phosphorylation enrichment [6] | phosphorylation enrichment [7] | phosphorylation enrichment [8] | phosphorylation enrichment [9] | phosphorylation enrichment [10] | phosphorylation enrichment [11] | phosphorylation enrichment [12] | phosphorylation enrichment [13] | SH2 binding enrichment [14] | SH2 binding enrichment [15] | SH2 binding enrichment [16]
FEPDAYFDLDQ [ELP5_Y302_D303Y_YF] | 1.52 | 0.678 | 0.656 | 5.04 | 4.43 | 0.648 | 1.34 | 0.598 | 0.622 | 1.82 | 0.477 | 0.91 | 0.584 | 0.814 | 0.499 | 0.501
FESPRYLQVRI [FANCA_Y488_H492R] | 0.946 | 0.537 | 0.477 | 0.62 | 0.572 | 0.589 | 0.985 | 0.513 | 0.579 | 0.756 | 0.437 | 0.68 | 0.437 | 0.763 | 0.964 | 0.742
FFHCTYKQRMI [CLEC12A_Y242_K244Q_YF] | 1.04 | 0.687 | 0.608 | 0.643 | 0.752 | 0.513 | 1.28 | 0.493 | 0.498 | 1.02 | 0.517 | 0.85 | 0.435 | 1.27 | 1.07 | 0.902
FFRKFCNKSED [RYR1_Y4864_Y4864C] | 0.981 | 0.515 | 0.381 | 0.49 | 0.6 | 0.417 | 1.04 | 0.589 | 0.603 | 0.779 | 0.518 | 0.677 | 0.442 | 0.992 | 0.75 | 0.513
FGCGMYSHLQG [LGR4_Y848_D844G_YF] | 1.1 | 0.879 | 0.744 | 0.795 | 0.916 | 0.745 | 1.09 | 0.713 | 1.71 | 1.06 | 3.76 | 1.04 | 2.53 | 0.875 | 0.731 | 1.1
FGGLRCGFGVL [KRTAP20-2_Y13_Y13C_YF] | 0.91 | 0.49 | 0.537 | 0.45 | 0.686 | 0.46 | 1.14 | 0.349 | 0.403 | 0.901 | 0.34 | 0.673 | 0.37 | 0.69 | 0.609 | 0.469
FGRTFYNQAIM [MCCC2_Y196] | 1.08 | 0.476 | 0.529 | 0.377 | 0.535 | 0.411 | 1.04 | 0.407 | 0.462 | 0.96 | 0.431 | 0.635 | 0.463 | 0.672 | 0.592 | 0.625
FGYPGYQCKHY [TIMP3_Y177_S179C] | 0.718 | 0.295 | 0.519 | 0.46 | 0.59 | 0.374 | 0.806 | 0.477 | 0.44 | 0.588 | 0.704 | 0.473 | 0.428 | 0.916 | 0.876 | 0.805
FHKALYTVRSY [PDE6C_Y266] | 0.814 | 0.534 | 0.524 | 0.465 | 0.576 | 0.471 | 0.919 | 0.515 | 0.801 | 0.704 | 0.414 | 0.775 | 0.582 | 0.814 | 0.87 | 0.456
FIGRIYLFLTK [GARS1_Y414_YF] | 1.61 | 0.83 | 0.632 | 0.542 | 0.813 | 0.707 | 1.45 | 0.567 | 0.564 | 1.38 | 0.586 | 1.31 | 0.632 | 1.57 | 1.22 | 0.879
FIRKDYEACKA [BBS4_Y48_YF] | 0.642 | 0.651 | 0.516 | 0.502 | 0.592 | 0.49 | 0.865 | 0.445 | 0.396 | 0.741 | 0.334 | 0.726 | 0.479 | 1.07 | 0.731 | 0.792
FKDYFYCWNTS [AICDA_Y146_F151S] | 2.62 | 5.4 | 2.58 | 11.2 | 9.31 | 1.03 | 1.44 | 0.618 | 0.599 | 3.67 | 2.14 | 0.973 | 0.885 | 0.73 | 0.542 | 0.375
FKGIVYSVSSD [DCX_Y70_A71S] | 1.09 | 0.535 | 0.668 | 0.548 | 0.666 | 0.399 | 1.11 | 0.666 | 0.547 | 0.959 | 0.488 | 0.887 | 0.722 | 0.718 | 0.695 | 0.456
FKGKNYKPLDL [RPL35_Y78_K77N_YF] | 0.432 | 0.262 | 0.385 | 0.393 | 0.418 | 0.471 | 0.641 | 0.354 | 0.38 | 0.663 | 0.359 | 0.618 | 0.487 | 0.962 | 0.644 | 0.613
FKNGDYNEVMK [LCT_Y1638] | 0.882 | 0.578 | 0.415 | 0.579 | 0.548 | 0.41 | 0.903 | 0.389 | 0.541 | 0.595 | 0.388 | 0.578 | 0.388 | 0.744 | 0.642 | 1.77
FKPGFYNLKEK [LAMA1_Y490_C485Y_YF] | 0.601 | 0.434 | 0.396 | 0.513 | 0.616 | 0.61 | 0.689 | 0.466 | 0.489 | 0.499 | 0.566 | 0.473 | 0.466 | 0.915 | 0.887 | 0.383
FLEKFYKFGSR [NNMT_Y25_YF] | 0.723 | 0.592 | 0.6 | 0.571 | 0.548 | 0.389 | 0.746 | 0.413 | 0.341 | 0.679 | 0.433 | 0.551 | 0.365 | 0.883 | 0.789 | 0.428

Sequence | phosphorylation enrichment [1] | phosphorylation enrichment [2] | phosphorylation enrichment [3] | phosphorylation enrichment [4] | phosphorylation enrichment [5] | phosphorylation enrichment [6] | phosphorylation enrichment [7] | phosphorylation enrichment [8] | phosphorylation enrichment [9] | phosphorylation enrichment [10] | phosphorylation enrichment [11] | phosphorylation enrichment [12] | phosphorylation enrichment [13] | SH2 binding enrichment [14] | SH2 binding enrichment [15] | SH2 binding enrichment [16]
FLQEIYNSNNQ [FGG_Y140_YF] | 1.07 | 0.79 | 0.602 | 0.65 | 0.883 | 0.63 | 1.08 | 1.46 | 1.69 | 0.907 | 0.514 | 0.713 | 1.64 | 0.89 | 1.1 | 0.53
FLQTDYTSQVS [FRMPD1_Y846] | 1.03 | 0.37 | 0.44 | 0.442 | 0.538 | 0.451 | 0.805 | 0.404 | 0.417 | 0.732 | 0.386 | 0.565 | 0.428 | 0.791 | 0.873 | 0.579
FPIDHYLGKEM [G6PD_Y202_R198P_YF] | 0.789 | 0.404 | 0.485 | 0.492 | 0.619 | 0.469 | 0.903 | 0.396 | 0.68 | 0.685 | 0.391 | 0.524 | 0.489 | 0.908 | 0.716 | 0.497
FQCLRYIKQLG [SAMHD1_Y146_R143C] | 0.954 | 0.468 | 0.434 | 0.382 | 0.596 | 0.428 | 1.25 | 0.427 | 0.452 | 1.11 | 0.423 | 0.809 | 0.44 | 0.662 | 0.658 | 0.528
FQNGMYGLHQD [SGSH_Y89_H84Y_YF] | 0.665 | 0.437 | 0.543 | 0.462 | 0.555 | 0.454 | 0.709 | 0.599 | 0.598 | 0.733 | 0.456 | 0.552 | 0.828 | 0.748 | 0.724 | 0.459
FRIGPYQPSVP [MATR3_Y784_N787S_YF] | 0.712 | 0.604 | 0.543 | 0.517 | 0.616 | 0.5 | 0.868 | 0.453 | 0.537 | 0.662 | 0.412 | 0.536 | 0.478 | 0.843 | 0.782 | 0.657
FSDQVYRQHRK [TH_Y230_R233H] | 0.555 | 0.335 | 0.452 | 0.388 | 0.441 | 0.355 | 0.644 | 0.378 | 0.447 | 0.529 | 0.357 | 0.819 | 0.452 | 1.03 | 0.539 | 0.624
FSNKLYFQLEQ [PDPR_Y109_YF] | 1.35 | 0.849 | 0.664 | 3.05 | 2.7 | 0.661 | 1.19 | 0.636 | 0.694 | 1.49 | 1.64 | 0.796 | 0.621 | 0.626 | 0.562 | 0.523
FSNPAYYVLEG [INPPL1_Y986_N982S] | 0.834 | 0.614 | 0.509 | 10.1 | 7.89 | 0.426 | 0.848 | 1.32 | 0.778 | 3.92 | 6.51 | 0.591 | 1.43 | 0.918 | 0.99 | 4.44
FSTDFYRVGGH [NTRK2_Y707_YF] | 0.722 | 0.637 | 0.405 | 0.459 | 0.569 | 0.471 | 0.813 | 0.493 | 0.396 | 0.704 | 0.429 | 0.756 | 0.478 | 0.849 | 0.702 | 0.56
FTAVGYHKHFT [NOMO1_Y1137_I1141F] | 0.614 | 0.252 | 0.366 | 0.449 | 0.589 | 0.449 | 0.935 | 0.431 | 0.426 | 0.782 | 0.424 | 0.491 | 0.552 | 0.865 | 1.5 | 1.04
FTGDIYSNSNL [LZTR1_Y141_YF] | 0.957 | 0.903 | 0.738 | 0.667 | 0.502 | 2.87 | 0.849 | 6.36 | 7.46 | 0.756 | 1.1 | 0.831 | 5.54 | 0.721 | 0.586 | 0.415
FTTIHYNFMCN [TP53_Y234_C229Y_YF] | 1.03 | 0.74 | 0.65 | 0.682 | 0.887 | 0.565 | 1.4 | 0.496 | 0.63 | 1.24 | 0.495 | 0.987 | 0.455 | 1.08 | 0.658 | 0.634
FTYDPYSEEEP [IL2RB_Y387_D391E] | 1.22 | 0.652 | 0.572 | 0.5 | 0.818 | 0.601 | 1.25 | 1.14 | 0.825 | 1.27 | 0.524 | 0.915 | 1.69 | 0.92 | 0.699 | 0.817
GAEIVYKSPVV [MAPT_Y711] | 0.892 | 0.747 | 0.581 | 0.478 | 0.672 | 0.416 | 0.904 | 0.533 | 0.497 | 0.694 | 0.558 | 18.3 | 0.526 | 0.758 | 0.63 | 0.418
GAVGNYSGGLA [MGMT_Y158] | 0.57 | 0.554 | 0.48 | 0.453 | 0.61 | 0.483 | 0.765 | 0.374 | 0.408 | 0.419 | 0.422 | 0.43 | 0.335 | 0.551 | 0.622 | 0.367
